Data on 17 sequences can be found in the DeepSol protein solubility set.

This data set can be described thus: soluble on expression in E. coli; label from the status in PepcDB or PDB records.
Consider “MSLAVVKGARVQVPFGQQIKVGIVVDLPSTTDIPQSKLKPIHAVLDHQAIFDPEIWQLLHWAASYYHAAIGEVLASALPVKLRNGDAAEYVENDYFRVTELGQQRLVSPENKRSKKQYDLLSRLAEIAGFFEKPAGVSPSVWKALLEKGYLAKVVPTCQRKSWQQSLANRPLVNSQSRLVLNQQQTLVVSRLNACQNFETFLLNGITGSGKTEVYLQVIEQILKQDKQVLVLVPEIGLTPQMVNRFKTRFNVEIDVLHSNINETMRLKVWLKAKNGESAIVIGTRSALFTQFQRLGLIIIDEEHDHSFKQQEGWRYHARDVAIFRAKCLNIPIILGSATPSLESVYNVKNGKFTQLLLSTRAGNAEIAQQQLIDLKTQRITAGLSDRLLMLMQTHLQKGNQVMLFLNRRGFAPVLLCHECGWICECDACEKPYTYHQKQRVLRCHHCASQRVIPRQCGYCGSTNLITTGIGTEQLEQLLSEYFPTYQISRIDRDSTGRKGALEHHLNAIQTGKSQILIGTQMLAKGHHFPNVTLVALVNVDSALFSTDFRAEERLAQLYLQVAGRAGRAEKTGEVVLQTHYPDHPLLKCLLKDGYNAFAEEALKMRQVMALPPFTAQVLFRATGKQSDKVEHLLQNLTAYFQHKSVELGIEGIQISPPFSAIVAKKAGYYRWLLLIQHQSRSAIQQLLNVFDQEKSALNLPANIRLSLDVDPYDMSEGHHHHHH”, for which the “soluble on expression in E. coli” value is “soluble”.

As to “MLDNVLRIATRQSPLALWQAHYVKDKLMASHPGLVVELVPMVTRGDVILDTPLAKVGGKGLFVKELEVALLENRADIAVHSMKDVPVEFPQGLGLVTICEREDPRDAFVSNNYDSLDALPAGSIVGTSSLRRQCQLAERRPDLIIRSLRGNVGTRLSKLDNGEYDAIILAVAGLKRLGLESRIRAALPPEISLPAVGQGAVGIECRLDDSRTRELLAALNHHETALRVTAERAMNTRLEGGCQVPIGSYAELIDGEIWLRALVGAPDGSQIIRGERRGAPQDAEQMGISLAEELLNNGAREILAEVYNGDAPA”, the “soluble on expression in E. coli” value is listed as “soluble”.

“MLRISRDLVIDEDDIEIGFVRASGPGGQNVNKVATSAQLRFDTRKLTLPEDATIRLARIAGQRMTKDGVIVIHAQRFRTQERNRQDAIDRLVEILSEALEHHHHHH”: the “soluble on expression in E. coli” value is given as “not soluble”.

For “MSLTEIRLVDVTMRDGNQSLWGATGLNTAHMLQAAALTEACGFRAIDFTSSSHMAVAVRYFQNNPWERLRRMAAAMPTTPLQFITTGLRFIAWQQADPEFMRLVYRALQANGVGRFVLLDPMHEVPAVIEAAKLVKEEGNAEVMAALTFTLSEIHTDQFYADFARAVGQSPNIDLFYIKDPAGLLSVDRARTLVPAVKAVIGNRPLEIHAHTTVGQGMMASLEAAKLGISAIHVGVGPGGDGSSLPEANRMVANLEEAGFSVGVDKAALKRLTTYWERVALAEGLPPGTPQNFDASFLRHQIAGGVMTTIARQLDELGLSDRMGAVIEETGQVRADLGFPIMVTPFPQMVMTQALFNVIGERRYAQVSDQVIRYCMGKFGKPTSPVDREVLATIMDRPRSRELEDEPMFPALGDLRRQFGSHLPDEEFLLRAVMPGEQVDAMLAAGPSRATYSPQAAPILSLLRQLAARPDARDIVIEREGFRLALHAGASLEGHHHHHH”, the “soluble on expression in E. coli” value is listed as “not soluble”.

For the sequence “GKNMDTSAEPADVQANVSDSSRIEQEAIGMIEDFYEAYAASFMSTGKEALALGDSIKQKFLTKELIEKVDRLIEATDADPIIRAQDLGENDMKTLSVKHLNDNWYEVNYTSAKGSQYERAVSIPVRVVNVDGQYLIDDITPEN”, the “soluble on expression in E. coli” value is given as “soluble”.

Take “MDIKHEMIYREDDVLLVKSEPQLHSPCATGSNGLPAGAGSNLLCASNGLVTTLASGSSLNGLTNNVPSNGLSSSGPFSSIGGGVSASKRQRTDDWLSSPSGNVPPLTPSPGPPSHPYTVISNGYSSPMSSGSYDPYSPNGKIGREDLSPSSLNGYSADSCDSKKKKGPTPRQQEELCLVCGDRASGYHYNALTCEGCKGFFRRSITKNAVYQCKYGNNCEIDMYMRRKCQECRLKKCLSVGMRPECVVPEVQCAVKRKEKKAQKEKDKPNSSTNGSPDVIKVEPELSDSEKTLCNGSKGISPEQEELIHRLVYFQNEYEHPSEEDVKRIINQPMDGEDQCDVRFRHITEITILTVQLIVEFAKRLPGFDKLLREDQIALLKACSSEVMMFRMARRYDVQTDSILFVNNQPYSRDSYNLAGMGETIEDLLHFCRTMYSMRVDNAEYALLTAIVIFSERPALIEGWKVEKIQEIYLEALRAYVDNRRKPKPGTIFAKLLSVLTELRTLGNQNSEMCFSLKLKNKKLPPFLAEIWDVDLKT”: the “soluble on expression in E. coli” value is listed as “soluble”.

For “MGSDKIHHHHHHMRVEIIFLGCGGGRWATITQKKATGGFRIHTNELRMHVDPGPGAIVRLNELKISPWRTNALFISHCHPDHYTDGEIIVEAITQGMTKKRGVFLGSLSVVEGFGEYEYVVSKYHQSKLEEVRVLYPGDSAELYDTTIKATHTKHGDPFGIGFRLSTIYGDIGYTSDTEFIPQLIEDFDGVRILIANIVRKKNERIKGHLCSNDAIDLINSMNKKPELLIMNHMGVKMTNPQIEAEYISQNTGIEVIPARLGLKVELLNGKYKYQLIK”, the “soluble on expression in E. coli” value is reported as “not soluble”.

“MGSDKIHHHHHHMDTLQKTIHNSEYPVVCRSCEARHGGLCSTLTPQQLCDLNRHSSRKKLEAGNELLGQGELVTSYGNILNGVVKLSKMMSDGRQQIVGLQFAPDFLGRPFMAESKMTAEAATDVEICLFPRRIVDRMVTEVPDMERKLHSQSLKELDEARDWMLTLGRKSAQEKVASFLYMIATHIDPENDDKSCFDLPLSRADIADFLGLTIETVSRQMTKLRKEGTIRIENNRHITVPDLDVLSEAAGND”: the “soluble on expression in E. coli” value is reported as “not soluble”.

As for “VTGAIDPNLFTDAVLQVAAAAGRDETLPMLTGIHMEIDGENVTLTATDRFRLALRRFTWSPANPEAKAKLLIPAKNLSDNARSLDSGSTEPVEIAVGTGENIGAEGLFGIHIDNRQTTTRMLDADFPNVSPLL”, the “soluble on expression in E. coli” value is on record as “not soluble”.

Consider “MPGGRRRGFDDQVALQTAMELFWRQGYEGTSITDLTKALGINPPSLYAAFGSKRDLFEKTLDRYMCERTLQLEEAMVRPTAHEAVLDFLTGRVEVFTAPGQPFGCMTVQAGLASGEPHHEIVDLLTAAREQMRQTVLDRFEKALADGDLPAGTDCTALARYVMAAVYGLSVEAASGAPREELTAAAILAAQVVPRAQM”, for which the “soluble on expression in E. coli” value was “soluble”.

For the sequence “MQAEKLAYYPFTSEASAYVGNLGISLESLLNSRAYRAARARGIERVKEALEGEIKKSPVSGEAQVLSELLSYPFARMLVACVDDQLFTRRYALAEAKAAYTFLRNENPDFLLEFGDDFGISADSQDSYFSMHFTDYIRFSNSLKDPSWKLTNRQLRAGKIKITKEEFSRLLEEAVRERIEQSFPVPEIPPEVSSFCSPYAAEIKDKFEVQKKKFGSTDFGAVKPELFPPCIAYALANVQGGVNLAHSMRFAMTSFLLNVGMSVDEILNLFNISPDFNAEKTLYQIEHIAGATGNTYKPPACDTMRTYGNCVGKDRLCEKISHPLGYYEKKVFIKNKEGEEAQGKEQGKEKDDGKEKENGKESEVKKKKEKLEHHHHHH”, the “soluble on expression in E. coli” value was “soluble”.

For “MLMPKRTKYRKQMKGRNRGKAHRGNSIAFGDIAIKAIEHGRIDSRQIESARVAMTRHIKRAGKVWIRVFPDKPLTAKPLETRMGKGKGSVEKWVMNIKPGRIVYEMLGIEEGLAREALALAQSKLPFKTKIVTCESENEIYLEHHHHHH”, the “soluble on expression in E. coli” value is on record as “soluble”.

With “MCGIVGYIGYDNAKELLLKGLEKLEYRGYDSAGIAVVNDDNTTVFKEKGRIAELRKVADSSDFDGPVGIGHTRWATHGVPNHENSHPHQSSNGRFTLVHNGVIENYEELKGEYLQGVSFISETDTEVIVQLVEYFSNQGLSTEEAFTKVVSLLHGSYALGLLDAEDKDTIYVAKNKSPLLLGVGEGFNVIASDALAMLQVTSEYKEIHDHEIVIVKKDEVIIKDADGNVVERDSYIAEIDASDAEKGVYAHYMLKEIHEQPAVMRRIIQEYQDAEGNLKIDQDIINDVKEADRIYVIAAGTSYHAGLVGKEFLEKWAGVPTEVHVASEFVYNMPLLSEKPLFVYISQSGETADSRAVLVETNKLGHKSLTITNVAGSTLSREADHTLLLHAGPEIAVASTKAYTAQIAVLSILSQIVAKEHGREADIDLLRELAKVTTAIEAIVDDAPIMEQIATDFLETTRNAFFIGRTIDYNVSLEGALKLKEISYIQAEGFAGGELKHGTIALIEEGTPVVGLATQEKVNLSIRGNVKEVVARGAHPCIISMEGLEKEGDTYVIPHVHELLTPLVSVVALQLISYYAALHRDLDVDKPRNLAKSVTVE”, the “soluble on expression in E. coli” value is listed as “not soluble”.

With “ADAYFYNPITSQRSNFPLSYPMTAKSFMEKHGLLDREEYLKRLAENENNVELVNYPLEKLEFNRRVNKLNVLMISVNNLRADALNQEEMPNLYEFAQQNQNFRKHYSSSNDTYGAFGLFYGLPTSYASSIKAQGASPVLLDVLKDQGYTFGLFSGSGFEDDLYSEIVFRGVNLAEKLDGTQAHTDKQSIADWNMWLTEKANQPWFSYIEVTTVDNFESIPSNSKEDMSASERFKNAYEFAVKSADDKVGGIIKTLEDAQLLANTVVIVTSNHGSEFNETNTNSWGANSNYSRYQLQVPMVIHWPGMMAGEFNHSTSHLDLSVTLLQDMLGVSSNPYDYSSGRNLFDESRRRWILAGDTRELALITNNQTTVIDKFGNYKLYDENYKRMRDETPKLPVLMQGLTELQRFYSKSE”, the “soluble on expression in E. coli” value is “not soluble”.

In the case of “MSLRVTLREVAQEAGVSLKTASNVINHSGRMADATREKVQDVIDRLGYRVNVSARNLNRGKTGFITLAVPSLTAPYLAELANRVIDAARIYGYSVYITTYAEGSAQGARALLRNFNATVSDGMILSISEVEDLDPEDLDVDYPLVCVGARSTHGKADHVTPDDVQEARLAAQYLFDHGATNLAVIGSRTDPEHILELRDAVEGNAQLRMRGIFEACADQGVELDTRLVPNVGQDWTIGSGARMTQRIVDSGIPFDGIVAFNDQLALGALFTLAANGIAVPDRVQVIGFDNNEEAAYFQPPLTTMDSCLDWIAPTAVSRIINRIDGSRTLEPELITTQSRIIARATTRAEGHHHHHH”, the “soluble on expression in E. coli” value is recorded as “soluble”.

Turning to “MGSDKIHHHHHHMVNGNITQLSDMQIPENWGAYLAEKSTQNNAFFTSGVVQNVPQIAALLGAGKVANMPLFKPLADDDPQVPDDTTDLLVNKITTDLAQARKLGFDQAWSATDLSAELSGADPLSAIGDQVSDYWSHVYEKLLLQTLTGVFSSTSMKGVNQLDTTTDKTDTTFSLKNFNKARFLLGDRYKDLAIVAVHSDILRQLQDANLVDAKNNSTFVLNGNSNVPTAIQTPDAGDKIKGVQIVVDDSLPVDNGKYTSYLFAQGAVGYSELPVTNAVETNRDPLKNHGIDYLVNRRRFVFAPQGLSWNESNFVTKNPGKTYPSMTDLADGTNWSKVYDHKLIPMAQFVTSADAIVPSTTADPQTGK”, the “soluble on expression in E. coli” value is on record as “not soluble”.

In the case of “MSLDKPVIKISTENVDLIYRVGDNGRLYQSYLGKRLNHATDIAHLPQGSEAYLTHGMEDYFEPAIHIVHNDGNPSTLLKYVSHTRNQVSPGVDEVVITMQDDKYPVTVKLHYVAYQKENLIKTFTEISHREKKPVQLHKYASSMLHLNRANYFLTEFSGDWASEAHVKEQPLEFGKKTIDTKLGARANMFCSPFFQLALDGKSEENQGEVLVGTLGWTGNFSFVFEVDNKNELRVISGINPYASEYSLKPNEIFRTPDFYFTYSFKGKGQASRNFHDWARKYQVKDGNQTRMTLLNNWEATYFDFDEAKLVKLMDDAVELGVDMFLLDDGWFANKYPRSGDHQGLGDWDETADKLPHGIGYLTEAAKKKGIKFGIWIEPEMVNPKSELYEKHKDWVIHLPNRDEYYFRNQLVLDLSNPKVQDYVFGVVDNLMTKYPDIAFFKWDCNSPITNIYSVYLKDKQSHLYIDYVRGLYNVLERVKAKYPDLPMMLCSGGGGRSDYEALSYFTEFWPSDNTDPIERLFIQWGFSQVFPAKTMCAHVTTWNKNSSVKFRTDVAMMCKLGFDIKLADMSKDDETYCRTAVQNYNRLKPVVLEGDMYRLVSPYGSNHTSTMYVGKDKDKAVVFAFDIHPRYAEKILPVRLQGLDADKMYRVKEINLMPGANSSLSGNGEVFSGEFLMNVGLNLFTTQQLNSRVIEVVAEGHHHHHH”, the “soluble on expression in E. coli” value is recorded as “soluble”.
